This note sets out measurements from paper PMC6602975.

The target of assay [1] is Unmodified nucleosome core particle (X. laevis histone octamer on 147 bp Widom-601 DNA) (X. laevis). The assay is described as follows: native gel or EMSA; increasing amounts of Orc1 or Sir3 proteins with 50 or 25 nM nucleosomes; 10 mM Tris pH 7.5, 50 mM NaCl, 2.5% glycerol, 1 mM DTT; room temperature, 30 min; native PAGE 6% (Sir3) or 8% (Orc1), 0.2X TBE; decrease of free nucleosome; apparent KD from a Hill fit.

The target of assay [2] is H4K16ac nucleosome (X. laevis | not stated). Described as above.

Chain of Wild-type Orc1 (1–214) BAH domain (P54784 1-214): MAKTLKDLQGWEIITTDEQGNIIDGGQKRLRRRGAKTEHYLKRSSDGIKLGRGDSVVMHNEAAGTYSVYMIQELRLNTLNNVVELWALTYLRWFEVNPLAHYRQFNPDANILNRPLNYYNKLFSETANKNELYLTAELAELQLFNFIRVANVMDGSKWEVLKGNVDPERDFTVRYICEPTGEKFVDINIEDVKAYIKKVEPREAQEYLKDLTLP

On to “Wild-type Orc1 (1–214) BAH domain (from UniProt P54784 1-214) (domain or fragment)”, for which the values for the Kd in assay [1] and in assay [2] were 1300 nM and 1500 nM, respectively.
